The record followed here is paper doi:10.1101/2025.06.05.658000 (2025).

What all share (assay): ELISA
On the technique in general: In an ELISA, binding on a coated surface is turned into a signal by an enzyme label.

For assay [1], the target named is HLA-DR (DRA1*01:01 / DRB1*03:01), soluble knob-into-hole Fc heterodimer (human).
Assay [2] concerns the target HLA-DR (DRA1*01:01 / DRB1*04:06), soluble knob-into-hole Fc heterodimer (human).
Assay [3] has as its target HLA-DR (DRA1*01:01 / DRB1*01:02), soluble knob-into-hole Fc heterodimer (human).
For assay [4], the target named is HLA-DR (DRA1*01:01 / DRB1*11:04), soluble knob-into-hole Fc heterodimer (human).
For assay [5], the target named is HLA-DR (DRA1*01:01 / DRB1*13:02), soluble knob-into-hole Fc heterodimer (human).
In assay [6] the target is HLA-DR (DRA1*01:01 / DRB1*14:01), soluble knob-into-hole Fc heterodimer (human).
In assay [7] the target is HLA-DR (DRA1*01:01 / DRB1*14:54), soluble knob-into-hole Fc heterodimer (human).
For assay [8], the target named is HLA-DR (DRA1*01:01 / DRB1*16:02), soluble knob-into-hole Fc heterodimer (human).
Assay [9] deals with HLA-DR (DRA1*01:01 / DRB1*11:01), soluble knob-into-hole Fc heterodimer (human).
For assay [10], the target named is HLA-DR (DRA1*01:01 / DRB1*09:01), soluble knob-into-hole Fc heterodimer (human).
Assay [11] has as its target HLA-DR (DRA1*01:01 / DRB1*15:03), soluble knob-into-hole Fc heterodimer (human).
Assay [12] deals with HLA-DR (DRA1*01:01 / DRB1*12:02), soluble knob-into-hole Fc heterodimer (human).
Assay [13] addresses HLA-DR (DRA1*01:01 / DRB1*04:07), soluble knob-into-hole Fc heterodimer (human).
The target in assay [14] is HLA-DR (DRA1*01:01 / DRB1*13:01), soluble knob-into-hole Fc heterodimer (human).
The target of assay [15] is T1, HLA-DR (DRA1*01:01 / DRB1*12:01), soluble knob-into-hole Fc heterodimer (human).
Assay [16] deals with HLA-DR (DRA1*01:01 / DRB1*04:03), soluble knob-into-hole Fc heterodimer (human).
For assay [17], the target named is HLA-DR (DRA1*01:01 / DRB1*04:04), soluble knob-into-hole Fc heterodimer (human).
Assay [18] addresses T1, HLA-DR (DRA1*01:01 / DRB1*12:01), …. The source holds these as a separate data set.
Assay [19] deals with T2, HLA-DR (DRA1*01:01 / DRB1*07:01), soluble knob-into-hole Fc heterodimer (human).
The target of assay [20] is HLA-DR (DRA1*01:01 / DRB1*15:01), soluble knob-into-hole Fc heterodimer (human).
In assay [21] the target is HLA-DR (DRA1*01:01 / DRB1*01:01), soluble knob-into-hole Fc heterodimer (human).
Assay [22] has as its target HLA-DR (DRA1*01:01 / DRB1*04:01), soluble knob-into-hole Fc heterodimer (human).
For assay [23], the target named is HLA-DR (DRA1*01:01 / DRB1*04:05), soluble knob-into-hole Fc heterodimer (human).
Assay [24] has as its target HLA-DR (DRA1*01:01 / DRB1*15:02), soluble knob-into-hole Fc heterodimer (human).
For assay [25], the target named is HLA-DR (DRA1*01:01 / DRB1*10:01), soluble knob-into-hole Fc heterodimer (human).
Assay [26] has as its target T2, HLA-DR (DRA1*01:01 / DRB1*07:01), …. The source holds these as a separate data set.

As a reminder, the Kd is the free concentration of one partner at which half of the binding sites on the other are occupied at equilibrium, for simple one-to-one binding.

Read-outs that look alike come from different tables or passages of the source. No end group written: not given here. *: point of attachment. Biotin = O=C1N[C@H]2[C@H](CS[C@H]2CCCCC(=O)*)N1; Ahx = NCCCCCC(=O)O A value given as a limit tells only on which side of the number the result lay.

In the case of KPVSKMRMATPLLMQALPM (also: biotin-labeled), the Kd in assay [1] turned out to be 15.1 nM; in assay [2], 2.63 nM; in assay [3], 1.78 nM; in assay [4] it was 4.54 nM; in [5], 4130 nM; in assay [6] it was 9.17 nM. Moreover, the Kd in assay [7] came out at 3.35 nM; in [8], 8.67 nM; in assay [9] it was 12 nM; in [10] it was 0.576 nM; in assay [11], 5.31 nM; in [12], 1.27 nM. The Kd is 2.76 nM in assay [13]; 315 nM in assay [14]; 22.9 nM in [15]; 2.32 nM in assay [16]; 2.7 nM in assay [17].
Regarding VEGFNCYFPLQSYGF [SARS-CoV-2 RBD peptide RBD483-497], the Kd in assay [18] is 439 nM; in [19], 173 nM.
For GNYNYLYRLFRKSNL [SARS-CoV-2 RBD peptide RBD447-461, wildtype strain], the Kd in assay [18] turned out to be 229 nM; in assay [19], 163 nM.
The like results for ADYNYKLPDDFTGCV [SARS-CoV-2 RBD peptide RBD419-433] were, in that order, more than 10000 nM and more than 10000 nM.
For the molecule VVLSFELLHAPATVC [SARS-CoV-2 RBD peptide RBD511-525], the values for the Kd in assay [18] and in assay [19] were 631 nM and 263 nM, respectively.
For {Biotin-Ahx}-KPVSKMRMATPLLMQALPM, the Kd was 2.13 nM in [20]; 1.83 nM in assay [21]; 2.35 nM in assay [22]; 14.9 nM in assay [23]; 8.75 nM in [24]; 1.27 nM in [25]. Also, in assay [26], the affinity, expressed as Kd, was 4.09 nM.
With TESIVRFPNITNLCP [SARS-CoV-2 RBD peptide RBD323-337], the dissociation constant (Kd) in assay [18] stood at 4930 nM; in assay [19], 435 nM.
